41 variants from the RNAGym collection of RNA variant scans (doi:10.7554/elife.90254) can be followed below.

The chains are these.
B1: OR4K15 (parent)
chain: GUUAACGGUCAUAGGCCAUGGAAACUAGGAGCACCAUUUCGCUGCCAGUGAAGAAAUGAACAAAGAAAAUCUGGGCCAGGCAGGCAUCAAAAGAAAUAGUCUUGCGCUCAACCAGAAAGUCUGUAAUCAUUUUAAGGGUA

In this data set the parent is B1. The experiment in a line: self-cleavage, relative activity (ratio to wild type); higher = more cleavage; in vitro, sequencing; the parent is a self-cleaving ribozyme.
Turning to GUUAACGGUCAUAGGCCAUGGAAACUAGGAGCACCAUUUCGCUGCCAGUGAAGAAAUGAACAAAGAAAAUCUGGGCCUGGCAGGCAUCAAAAGAAAUAGUCUUGCGCUCAACCAGGAAGUCUGUAAUCAUUUUAAGGGUA, the self-cleavage was 0.14. Then GUUAACGGUCAUAGGCCAUGGAAACUAGGAGCACCAUUUCGCUGCCAGUGAAGAAAUGAACAAAGAAAAUCUGGGCCUGGCAGGCAUCAAAAGAAAUAGUCUUGCGCUCAACCAGAAAGUCUGUAAUCAUUUUAAGGGUG, with 0.34; and GUUAACGGUCAUAGGCCAUGGAAACUAGGAGCACCAUUUCGCUGCCAGUGAAGAAAUGAACAAAGAAAAUCUGGGCCUGGCAGGCAUCAAAAGAAAUAGUCUUGCGCUCAACCAGAAAGUCUGUAAUCCUUUUAAGGGUA, with 0.14; and GUUAACGGUCAUAGGCCAUGGAAACUAGGAGCACCAUUUCGCUGCCAGUGAAGAAAUGAACAAAGAAAAUCUGGGCCUGGCAGGCAUCAAAAGAAAUAGUCUUGCGCUCAACCAGAAAGUCUGUAAUCGUUUUAAGGGUA, with 0.18. Then GUUAACGGUCAUAGGCCAUGGAAACUAGGAGCACCAUUUCGCUGCCAGUGAAGAAAUGAACAAAGAAAAUCUGGGCCGGGCAGGCAUCAAAAGAAAUAGUCUAGCGCUCAACCAGAAAGUCUGUAAUCAUUUUAAGGGUA, with 0.08; and GUUAACGGUCAUAGGCCAUGGAAACUAGGAGCACCAUUUCGCUGCCAGUGAAGAAAUGAACAAAGAAAAUCUGGGCCGGGCAGGCAUCAAAAGAAAUAGUCUGGCGCUCAACCAGAAAGUCUGUAAUCAUUUUAAGGGUA, with 0. Then GUUAACGGUCAUAGGCCAUGGAAACUAGGAGCACCAUUUCGCUGCCAGUGAAGAAAUGAACAAAGAAAAUCUGGGCCUGGCAGGCAUCAGAAGAAAUAGUCUUGCGCUCAACCAGAAAGUCUGUAAUCAUUUUAAGGGUA, with 0.32. On to GUUAACGGUCAUAGGCCAUGGAAACUAGGAGCACCAUUUCGCUGCCAGUGAAGAAAUGAACAAAGAAAAUCUGGGCCUGGCAGGCAUCAAAAGAAAUAGUCUUGCGCUCAACCAGAAAGUCUGUAUUCAUUUUAAGGGUA, for which the self-cleavage came to 0.35.

For the variant GUUAACGGUCAUAGGCCAUGGAAACUAGGAGCACCAUUUCGCUGCCAGUGAAGAAAUGAACAAAGAAAAUCUGGGCCGGGCAGGCAUCAAAAGAAAUAGUCUUGCUCUCAACCAGAAAGUCUGUAAUCAUUUUAAGGGUA, the self-cleavage was 0.01. To GUUAACGGUCAUAGGCCAUGGAAACUAGGAGCACCAUUUCGCUGCCAGUGAAGAAAUGAACAAAGAAAAUCUGGGCCGGGCAGGCAUCAAAAGAAAUAGUCUUGCCCUCAACCAGAAAGUCUGUAAUCAUUUUAAGGGUA belongs 0.02; to GUUAACGGUCAUAGGCCAUGGAAACUAGGAGCACCAUUUCGCUGCCAGUGAAGAAAUGAACAAAGAAAAUCUGGGCCUGGCAGGCAUCAAAAGAAAUAGUCUUGCGCUCAACCAGAAAGUCUGUAAUCAUUUUAAGGAUA, 0.36; to GUUAACGGUCAUAGGCCAUGGAAACUAGGAGCACCAUUUCGCUGCCAGUGAAGAAAUGAACAAAGAAAAUCUGGGCCUGGCAGGCAUCAAAAGAAAUAGUCUUGCGCUCAACCAGAAAGUCUGUAAUCAUUUUAAGGGUA, 0.36. To GUUAACGGUCAUAGGCCAUGGAAACUAGGAGCACCAUUUCGCUGCCAGUGAAGAAAUGAACAAAGAAAAUCUGGGCCGGGCAGGCAUCAAAAGAAAUAGUCUUGCGCUCAACCAGAAAGUCUUUAAUCAUUUUAAGGGUA belongs 0.25; to GUUAACGGUCAUAGGCCAUGGAAACUAGGAGCACCAUUUCGCUGCCAGUGAAGAAAUGAACAAAGAAAAUCUGGGCCGGGCAGGCAUCAAAAGAAAUAGGCUUGCGCUCAACCAGAAAGUCUGUAAUCAUUUUAAGGGUA, 0.35. To GUUAACGGUCAUAGGCCAUGGAAACUAGGAGCACCAUUUCGCUGCCAGUGAAGAAAUGAACAAAGAAAAUCUGGGCCUGGCAGGCAUCAAAAGAAGUAGUCUUGCGCUCAACCAGAAAGUCUGUAAUCAUUUUAAGGGUA belongs 0.38; to GUUAACGGUCAUAGGCCAUGGAAACUAGGAGCACCAUUUCGCUGCCAGUGAAGAAAUGAACAAAGAAAAUCUGGGCCUGGCAGGCAUCAAAAGAAAUAGUCUUGCGCUCAACCAGAAGGUCUGUAAUCAUUUUAAGGGUA, 0.49; to GUUAACGGUCAUAGGCCAUGGAAACUAGGAGCACCAUUUCGCUGCCAGUGAAGAAAUGAACAAAGAAAAUCUGGGCCUGGCAGGCAUCGAAAGAAAUAGUCUUGCGCUCAACCAGAAAGUCUGUAAUCAUUUUAAGGGUA, 0.27. As for GUUAACGGUCAUAGGCCAUGGAAACUAGGAGCACCAUUUCGCUGCCAGUGAAGAAAUGAACAAAGAAAAUCUGGGCCUGGCAGGCAUCAAAAGAAAUAGUCUUGCGCUCAUCCAGAAAGUCUGUAAUCAUUUUAAGGGUA, the self-cleavage stood at 0.04. Then GUUAACGGUCAUAGGCCAUGGAAACUAGGAGCACCAUUUCGCUGCCAGUGAAGAAAUGAACAAAGAAAAUCUGGGCCUGGCAGGCAUCAAAAGAAAUAGUCUUGCGCUCAACCGGAAAGUCUGUAAUCAUUUUAAGGGUA, with 0.11; and GUUAACGGUCAUAGGCCAUGGAAACUAGGAGCACCAUUUCGCUGCCAGUGAAGAAAUGAACAAAGAAAAUCUGGGCCUGGCAGGCAUCAAAAGAAAUAGUCUUGCGCUCAACCUGAAAGUCUGUAAUCAUUUUAAGGGUA, with 0.03; and GUUAACGGUCAUAGGCCAUGGAAACUAGGAGCACCAUUUCGCUGCCAGUGAAGAAAUGAACAAAGAAAAUCUGGGCCUGGCAGGCAUCAAAAGAAAUAGUCUUGUGCUCAACCAGAAAGUCUGUAAUCAUUUUAAGGGUA, with 0.03.

For GUUAACGGUCAUAGGCCAUGGAAACUAGGAGCACCAUUUCGCUGCCAGUGAAGAAAUGAACAAAGAAAAUCUGGGCCUGGCAGGCAUCAAGAGAAAUAGUCUUGCGCUCAACCAGAAAGUCUGUAAUCAUUUUAAGGGUA, the self-cleavage stood at 0.11. Then GUUAACGGUCAUAGGCCAUGGAAACUAGGAGCACCAUUUCGCUGCCAGUGAAGAAAUGAACAAAGAAAAUCUGGGCCUGGCAGGCAUCAAAAGAGAUAGUCUUGCGCUCAACCAGAAAGUCUGUAAUCAUUUUAAGGGUA, with 0.84. Then GUUAACGGUCAUAGGCCAUGGAAACUAGGAGCACCAUUUCGCUGCCAGUGAAGAAAUGAACAAAGAAAAUCUGGGCCUGGCAGGCAUCAAAAGAUAUAGUCUUGCGCUCAACCAGAAAGUCUGUAAUCAUUUUAAGGGUA, with 0.2; and GUUAACGGUCAUAGGCCAUGGAAACUAGGAGCACCAUUUCGCUGCCAGUGAAGAAAUGAACAAAGAAAAUCUGGGCCGGGCAGGCAUCAAAAGAAAUAGUCAUGCGCUCAACCAGAAAGUCUGUAAUCAUUUUAAGGGUA, with 0.11; and GUUAACGGUCAUAGGCCAUGGAAACUAGGAGCACCAUUUCGCUGCCAGUGAAGAAAUGAACAAAGAAAAUCUGGGCCUGGCAGGCAUCAAAAGAAAUAGUCUUGCGCUCAACCAGAAAGUCUGUAAUAAUUUUAAGGGUA, with 0.04. Then GUUAACGGUCAUAGGCCAUGGAAACUAGGAGCACCAUUUCGCUGCCAGUGAAGAAAUGAACAAAGAAAAUCUGGGCCGGGCAGGCAUCAAAAGAAAUAGUCUUGCGCUCAACCAGAAAGCCUGUAAUCAUUUUAAGGGUA, with 0.19. Turning to GUUAACGGUCAUAGGCCAUGGAAACUAGGAGCACCAUUUCGCUGCCAGUGAAGAAAUGAACAAAGAAAAUCUGGGCCUGGCAGGCAUCAAAAGAAAUUGUCUUGCGCUCAACCAGAAAGUCUGUAAUCAUUUUAAGGGUA, the self-cleavage was determined as 0.71. On to GUUAACGGUCAUAGGCCAUGGAAACUAGGAGCACCAUUUCGCUGCCAGUGAAGAAAUGAACAAAGAAAAUCUGGGCCUGGCAGGCAUCAAAAGAAAUAGUCUUGCGCUCAACCAGAAAAUCUGUAAUCAUUUUAAGGGUA, for which the self-cleavage was determined as 0.39. Then GUUAACGGUCAUAGGCCAUGGAAACUAGGAGCACCAUUUCGCUGCCAGUGAAGAAAUGAACAAAGAAAAUCUGGGCCUGGCAGGCAUCAAAGGAAAUAGUCUUGCGCUCAACCAGAAAGUCUGUAAUCAUUUUAAGGGUA, with 0.29; and GUUAACGGUCAUAGGCCAUGGAAACUAGGAGCACCAUUUCGCUGCCAGUGAAGAAAUGAACAAAGAAAAUCUGGGCCGGGCAGGCAUCAAAAGAAAUAGUCUUGCGCUCAACCAGAAAGUCUGUAAACAUUUUAAGGGUA, with 0.31. To GUUAACGGUCAUAGGCCAUGGAAACUAGGAGCACCAUUUCGCUGCCAGUGAAGAAAUGAACAAAGAAAAUCUGGGCCGGGCAGGCAUCAAAAGAAACAGUCUUGCGCUCAACCAGAAAGUCUGUAAUCAUUUUAAGGGUA belongs 0.38. To GUUAACGGUCAUAGGCCAUGGAAACUAGGAGCACCAUUUCGCUGCCAGUGAAGAAAUGAACAAAGAAAAUCUGGGCCUGGCAGGCAUCAAAAGUAAUAGUCUUGCGCUCAACCAGAAAGUCUGUAAUCAUUUUAAGGGUA belongs 0.4; to GUUAACGGUCAUAGGCCAUGGAAACUAGGAGCACCAUUUCGCUGCCAGUGAAGAAAUGAACAAAGAAAAUCUGGGCCUGGCAGGCAUCAAAAGGAAUAGUCUUGCGCUCAACCAGAAAGUCUGUAAUCAUUUUAAGGGUA, 0.33; to GUUAACGGUCAUAGGCCAUGGAAACUAGGAGCACCAUUUCGCUGCCAGUGAAGAAAUGAACAAAGAAAAUCUGGGCCUGGCAGGCGUCAAAAGAAAUAGUCUUGCGCUCAACCAGAAAGUCUGUAAUCAUUUUAAGGGUA, 0.11.

For GUUAACGGUCAUAGGCCAUGGAAACUAGGAGCACCAUUUCGCUGCCAGUGAAGAAAUGAACAAAGAAAAUCUGGGCCGGGCAGGCAUCAAAAGAAAUAGUCUUGCGCUCAACCAGAAAGUCUGUAAUCAUUUCAAGGGUA, the self-cleavage is 0.27. To GUUAACGGUCAUAGGCCAUGGAAACUAGGAGCACCAUUUCGCUGCCAGUGAAGAAAUGAACAAAGAAAAUCUGGGCCUGGCAGGCAUUAAAAGAAAUAGUCUUGCGCUCAACCAGAAAGUCUGUAAUCAUUUUAAGGGUA belongs 0.42; to GUUAACGGUCAUAGGCCAUGGAAACUAGGAGCACCAUUUCGCUGCCAGUGAAGAAAUGAACAAAGAAAAUCUGGGCCGGGCAGGCAUCAAAAGAAAUAGUCUUGCGCUCAACCAGAAAGUCGGUAAUCAUUUUAAGGGUA, 0.15; to GUUAACGGUCAUAGGCCAUGGAAACUAGGAGCACCAUUUCGCUGCCAGUGAAGAAAUGAACAAAGAAAAUCUGGGCCGGGCAGGCAUCAAAAGAAAUAGUCUUGCGCUCAACCAGAAAGUCCGUAAUCAUUUUAAGGGUA, 0.19. Regarding GUUAACGGUCAUAGGCCAUGGAAACUAGGAGCACCAUUUCGCUGCCAGUGAAGAAAUGAACAAAGAAAAUCUGGGCCUGGCAGGCAUCAAAAGAAAUAGUCUUGCGCUCAACCAGAAAGUCUGUGAUCAUUUUAAGGGUA, the self-cleavage stood at 0.03.

With GUUAACGGUCAUAGGCCAUGGAAACUAGGAGCACCAUUUCGCUGCCAGUGAAGAAAUGAACAAAGAAAAUCUGGGCCUGGCAGGCAUCAAAAGAAAUAGUCUUGCGCUCAACCAUAAAGUCUGUAAUCAUUUUAAGGGUA, the self-cleavage worked out at 0.03.
